Test results published in patent publication US20240182572A1 (OSE IMMUNOTHERAPEUTICS, published 2024).

What was measured:
[1] = target: T1, Recombinant hPD1 (Sino Biologicals, reference 10377-H08H) (human, UniProt Q15116 25-167); assay: ELISA, recombinant hPD1 immobilized, detection with peroxidase-labeled anti-human IgG
T1 construct: Bought recombinant protein; also called Human recombinant PD-1 (rPD1) protein; human PD-1
Description: Recombinant hPD1 (Sino Biologicals, Beijing, China; reference 10377-H08H) was immobilized on plastic at […] in carbonate buffer (pH 9.2) and purified antibody was added to measure binding.
For activity ELISA assay, recombinant hPD1 (Sino Biologicals, Beijing, China; reference 10377-H08H) was immobilized on plastic at 0.5 μg/ml in carbonate buffer (pH 9.2) and purified antibody were added to measure binding.

[2] = target: T2, biotinylated Human PD1 (AcroBiosystems, reference EP-101) (human, UniProt Q15116 25-167, limits assumed, biotinylated (site not stated)); assay: competitive ELISA: hPDL1 immobilized, biotinylated human PD1 at 0.66 µg/ml mixed with the antibody, streptavidin detection
T2 construct: Kit reagent; also called Biotin-PD-1Fc; not shown: Fc part, named only as 'Biotin-PD-1Fc'
T2 sequence (Q15116 25-167 limits assumed): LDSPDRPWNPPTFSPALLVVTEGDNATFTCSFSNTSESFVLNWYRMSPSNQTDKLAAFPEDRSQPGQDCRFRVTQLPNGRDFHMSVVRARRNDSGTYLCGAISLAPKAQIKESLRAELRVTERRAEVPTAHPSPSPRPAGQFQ
Description: To measure antagonist activity of the bifunctional antibody, a competitive ELISA assay was performed by PD-1:PD-L1 Inhibitor Screening ELISA Assay Pair (AcroBiosystems; USA; reference EP-101). In this assay, recombinant hPDL1 was immobilized on plastic at 2 μg/ml in PBS pH 7.4 buffer.
Competitive ELISA assay was performed by PD-1:PD-L1 Inhibitor Screening ELISA Assay Pair (Acro Biosystems; USA; reference EP-101). In this assay, recombinant hPDL1 was immobilized on plastic at 2 μg/ml in PBS pH 7.4 buffer.

T1 sequence (Q15116 25-167 limits assumed): as above

EC50 [1]: 0.33 nM
IC50 [2]: 6.9 nM
B1: anti PD-1*1/SIRPg*1 (bispecific antibody, human IgG1, kappa, N297A)
chain: DKTHTCPPCPAPELLGGPSVFLFPPKPKDTLMISRTPEVTCVVVDVSHEDPEVKFNWYVDGVEVHNAKTKPREEQYASTYRVVSVLTVLHQDWLNGKEYKCKVSNKALPAPIEKTISKAKGQPREPQVYTLPPCRDELTKNQVSLWCLVKGFYPSDIAVEWESNGQPENNYKTTPPVLDSDGSFFLYSKLTVDKSRWQQGNVFSCSVMHEALHNHYTQKSLSLSPGK
heavy: not shown
light: DVVMTQSPLSLPVTLGQPASISCRSSQSLVHANTNTYLEWYQQRPGQSPRLLIYKVSNRFSGVPDRFSGSGSGTDFTLKISRVEAEDVGVYYCFQGTHVPNTFGQGTKLEIKRTVAAPSVFIFPPSDEQLKSGTASVVCLLNNFYPREAKVQWKVDNALQSGNSQESVTEQDSKDSTYSLSSTLTLSKADYEKHKVYACEVTHQGLSSPVTKSFNRGEC
notes: IgG1 N298A isotype, knob-into-hole; also called anti-PD-1*1/SIRP*1; Anti PD-1*1 SIRP*1
